Columns and labels:
Assay in all cases: FACS, mutant-EGFP on HEK293F cells
[1] = molecular target: T1, KW27-18 (human CD39 mutant, C-terminal EGFP) (human, UniProt P49961 1-510)
T1 construct: expressed on HEK293F cells; not shown: C-terminal EGFP fusion (vector pCMV3-GFPSpark)
T1 chain: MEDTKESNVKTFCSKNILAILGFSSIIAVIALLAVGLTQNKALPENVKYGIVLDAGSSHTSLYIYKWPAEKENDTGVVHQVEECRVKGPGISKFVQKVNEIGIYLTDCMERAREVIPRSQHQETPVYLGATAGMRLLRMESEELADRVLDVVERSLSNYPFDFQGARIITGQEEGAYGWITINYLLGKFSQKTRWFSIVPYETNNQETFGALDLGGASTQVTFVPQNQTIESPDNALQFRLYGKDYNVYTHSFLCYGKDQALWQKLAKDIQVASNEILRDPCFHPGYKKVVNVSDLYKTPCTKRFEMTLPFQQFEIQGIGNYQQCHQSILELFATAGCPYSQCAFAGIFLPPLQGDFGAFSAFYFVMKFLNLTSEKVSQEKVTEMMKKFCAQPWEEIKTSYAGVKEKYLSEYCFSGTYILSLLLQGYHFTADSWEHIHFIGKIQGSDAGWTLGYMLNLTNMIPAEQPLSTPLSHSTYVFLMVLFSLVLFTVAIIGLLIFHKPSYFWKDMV
Protocol: (§1) Briefly, the human CD39 mutants were generated by gene synthesis and then cloned into an expression vector pCMV3-GFPSpark. The vectors containing the validated mutated sequences were prepared and transfected into HEK293F cells. Three days post transfection, the cells were collected to testing EGFP for transgene expression. A range of dosages of antibodies (start from 100 nM, 3-folds dilution, 11 points) were tested on the 20 generated mutants and stained by AlexFluor647 labelled anti-hIgG by FACS. Antibody binding was descripted as relative binding which is derived from AlexFluor647 intensity divided by GFP intensity.

[2] = molecular target: T2, KW27-9 (human CD39 mutant, C-terminal EGFP) (human, UniProt P49961 1-510)
T2 construct: expressed on HEK293F cells; not shown: C-terminal EGFP fusion (vector pCMV3-GFPSpark)
T2 chain: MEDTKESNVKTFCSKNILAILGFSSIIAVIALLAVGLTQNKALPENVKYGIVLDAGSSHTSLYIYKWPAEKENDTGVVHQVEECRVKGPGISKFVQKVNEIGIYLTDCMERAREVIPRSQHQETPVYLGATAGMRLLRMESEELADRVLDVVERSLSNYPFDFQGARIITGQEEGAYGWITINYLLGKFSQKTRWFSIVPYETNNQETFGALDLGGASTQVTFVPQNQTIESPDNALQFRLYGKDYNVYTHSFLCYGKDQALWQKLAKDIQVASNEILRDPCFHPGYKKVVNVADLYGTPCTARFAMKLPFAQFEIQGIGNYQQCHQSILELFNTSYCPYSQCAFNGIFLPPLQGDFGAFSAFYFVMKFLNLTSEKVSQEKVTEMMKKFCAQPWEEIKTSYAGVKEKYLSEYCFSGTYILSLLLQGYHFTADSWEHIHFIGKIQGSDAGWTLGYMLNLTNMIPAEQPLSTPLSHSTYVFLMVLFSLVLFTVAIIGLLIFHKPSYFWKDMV
Protocol: as §1

[3] = molecular target: T3, KW27-1 (human CD39 mutant, C-terminal EGFP) (human, UniProt P49961 1-510)
T3 construct: expressed on HEK293F cells; not shown: C-terminal EGFP fusion (vector pCMV3-GFPSpark)
T3 chain: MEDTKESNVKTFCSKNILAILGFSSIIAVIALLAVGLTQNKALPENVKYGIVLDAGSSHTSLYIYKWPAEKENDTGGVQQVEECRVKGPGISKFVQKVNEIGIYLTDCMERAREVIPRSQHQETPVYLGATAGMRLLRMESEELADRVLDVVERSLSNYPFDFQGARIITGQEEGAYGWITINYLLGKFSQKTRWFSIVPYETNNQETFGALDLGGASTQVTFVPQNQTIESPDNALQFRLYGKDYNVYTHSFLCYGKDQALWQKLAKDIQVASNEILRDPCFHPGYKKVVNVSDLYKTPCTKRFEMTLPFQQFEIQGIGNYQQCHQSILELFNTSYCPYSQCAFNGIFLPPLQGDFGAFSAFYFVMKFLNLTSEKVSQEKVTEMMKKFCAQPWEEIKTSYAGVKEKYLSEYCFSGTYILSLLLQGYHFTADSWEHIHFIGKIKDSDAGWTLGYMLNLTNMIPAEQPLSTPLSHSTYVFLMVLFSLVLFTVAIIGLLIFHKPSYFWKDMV
Protocol: as §1

[4] = molecular target: T4, KW27-19 (human CD39 mutant, C-terminal EGFP) (human, UniProt P49961 1-510)
T4 construct: expressed on HEK293F cells; not shown: C-terminal EGFP fusion (vector pCMV3-GFPSpark)
T4 chain: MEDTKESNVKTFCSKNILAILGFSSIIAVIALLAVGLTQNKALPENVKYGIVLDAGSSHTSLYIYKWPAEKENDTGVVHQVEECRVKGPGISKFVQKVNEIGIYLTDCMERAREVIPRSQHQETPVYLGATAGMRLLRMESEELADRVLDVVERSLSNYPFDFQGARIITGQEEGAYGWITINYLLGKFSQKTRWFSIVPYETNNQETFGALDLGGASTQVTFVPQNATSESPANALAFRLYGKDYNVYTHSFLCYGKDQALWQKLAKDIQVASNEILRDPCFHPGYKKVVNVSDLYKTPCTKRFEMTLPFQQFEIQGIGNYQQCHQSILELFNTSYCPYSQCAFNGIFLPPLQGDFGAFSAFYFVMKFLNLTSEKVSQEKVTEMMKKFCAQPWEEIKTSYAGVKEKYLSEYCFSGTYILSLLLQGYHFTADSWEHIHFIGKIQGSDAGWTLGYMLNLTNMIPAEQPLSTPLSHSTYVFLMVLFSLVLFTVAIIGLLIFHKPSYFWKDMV
Protocol: as §1

Measured: binding result

B1: Antibody T895 (antibody, V domains shown)
VH: EVQLQQSGPELVKPGASVKMSCKASGYTFTDYNMHWVKQSHGRTLEWIGYIVPLNGGSTFNQKFKGRATLTVNTSSRTAYMELRSLTSEDSAAYYCARGGTRFAYWGQGTLVTVSA
VL: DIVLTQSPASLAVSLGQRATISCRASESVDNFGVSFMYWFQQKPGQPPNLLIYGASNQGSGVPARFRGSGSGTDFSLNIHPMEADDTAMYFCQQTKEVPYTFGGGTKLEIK
notes: also called 31895
binds: all assays above

B2: c35 (antibody, V domains shown)
VH: EVRLQQSGAELVKPGASVKLSCTASGFNIEDTYVHWMKQRPEQGLEWIGRIDPAIDNSKYDPKFQGKATITAVSSSNTAYLQLSSLTSEDTAVYYCALYDGYNVYAMDYWGQGTSVTVSS
VL: DIVMTQAAFSNPVTLGTSASISCRSSKNLLHSNGITYLYWYLQRPGQSPQLLIYRASTLASGVPNRFSGSESGTDFTLRISRVEAEDVGVYYCAQLLELPHTFGGGTKLEIK
notes: its making is not described; also called chimeric antibody c35
binds: all assays above

B3: c34 (antibody, V domains shown)
VH: EIQVQQSGPELVKPGASVKVSCKASGYSFTDYNMYWVKQSHGKSLEWIGFIDPYNGYTSYNQKFKGKATLTIDKSSSTAFMHLNSLTSEDSAVYYCAIYGYDDAYYFDYWGQGTTLTVSS
VL: QIVLTQSPAIMSASPGEKVTITCSATSSVSYMHWFRQKPGTSPKLWIYSTSNLASGVPARFSGSGSGTSYSLTISRMAAEDAATYYCQQRITYPFTFGSGTKLEIT
notes: its making is not described; also called chimeric antibody c34
binds: all assays above

B4: Antibody 9-8B (antibody, V domains shown)
VH: QIQLVQSGPELKKPGETVKISCKASGYTFTHYGMNWVKQAPGKGLKWMGWINTYTGELTYADDFKGRFAFSLETSASTAYLQINNLKNEDTATYFCARRAYYRYDYVMDYWGQGTSVTVSS
VL: DIVMTQSQKFMSTSVGDRVSVTCKASHNVGTNVAWYQQKPGQSPKALIYSASYRYSGVPGRFTGSGSGTDFTLTISNVQSEDLAEYFCHQYNNYPYTFGGGTKLEIK
binds: all assays above

B5: hu23.H5L5 (antibody, V domains shown)
VH: QVQLVQSGAEVKKPGASVKVSCKASGYNLKDTFLHWVRQAPGQGLEWMGRIDPANGNIKYDPKFQGRVTITADTSANTAYMELISLRSEDTAVYYCANSPYYYGSGYRIFDVWGQGTTVTVSS
VL: QIVLTQSPATLSLSPGERATLSCSAFSSVNYMHWYQQKPGQAPRLLIYTTSNLASGIPTRFSGSGSGTSYTLTISSLEPEDFAVYYCQQRSTYPFTFGQGTKLEIK
notes: humanized c23
binds: all assays above

— patent US20210388105A1 (ELPISCIENCE SUZHOU BIOPHARMA, published 2021)
